In US20160051688A1 (Indiana University Research and Technology Corporation, priority 2010, published 2016):

How the values were obtained:
[1] = molecular target: T1, GPR119 (Homo sapiens, UniProt Q8TDV5); conditions: CHO cells expressing GPR119; cited from earlier work
T1 construct: expressed in transfected cells; host or cells: CHO
T1 sequence (Q8TDV5 1-335): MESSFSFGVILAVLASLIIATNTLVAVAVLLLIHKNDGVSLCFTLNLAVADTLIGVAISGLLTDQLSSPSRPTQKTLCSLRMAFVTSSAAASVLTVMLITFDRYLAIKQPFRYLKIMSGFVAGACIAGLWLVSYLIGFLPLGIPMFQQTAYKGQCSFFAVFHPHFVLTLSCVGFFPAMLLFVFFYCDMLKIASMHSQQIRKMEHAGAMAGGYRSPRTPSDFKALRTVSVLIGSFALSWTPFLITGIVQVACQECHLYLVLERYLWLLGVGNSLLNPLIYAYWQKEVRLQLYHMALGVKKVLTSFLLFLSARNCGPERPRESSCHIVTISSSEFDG

[2] = molecular target: GLP-1 receptor (UniProt P43220); experiment: cell-based or functional assay
[3] = molecular target: glucagon receptor (UniProt P47871); experiment: cell-based or functional assay
Sequence of glucagon receptor (P47871 26-477 limits assumed): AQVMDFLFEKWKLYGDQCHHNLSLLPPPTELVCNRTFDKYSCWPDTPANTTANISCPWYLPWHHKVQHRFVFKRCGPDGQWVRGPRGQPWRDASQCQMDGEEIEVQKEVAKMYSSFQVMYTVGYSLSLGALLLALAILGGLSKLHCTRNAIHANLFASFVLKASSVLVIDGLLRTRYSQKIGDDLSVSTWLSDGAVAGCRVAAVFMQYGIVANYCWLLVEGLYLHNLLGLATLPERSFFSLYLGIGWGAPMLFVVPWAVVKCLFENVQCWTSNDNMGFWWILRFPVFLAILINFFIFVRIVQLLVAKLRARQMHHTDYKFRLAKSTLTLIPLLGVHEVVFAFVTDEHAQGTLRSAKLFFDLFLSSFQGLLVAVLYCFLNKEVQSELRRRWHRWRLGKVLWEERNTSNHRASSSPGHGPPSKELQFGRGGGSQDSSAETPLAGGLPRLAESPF

Sequence of GLP-1 receptor (P43220 24-463 limits assumed): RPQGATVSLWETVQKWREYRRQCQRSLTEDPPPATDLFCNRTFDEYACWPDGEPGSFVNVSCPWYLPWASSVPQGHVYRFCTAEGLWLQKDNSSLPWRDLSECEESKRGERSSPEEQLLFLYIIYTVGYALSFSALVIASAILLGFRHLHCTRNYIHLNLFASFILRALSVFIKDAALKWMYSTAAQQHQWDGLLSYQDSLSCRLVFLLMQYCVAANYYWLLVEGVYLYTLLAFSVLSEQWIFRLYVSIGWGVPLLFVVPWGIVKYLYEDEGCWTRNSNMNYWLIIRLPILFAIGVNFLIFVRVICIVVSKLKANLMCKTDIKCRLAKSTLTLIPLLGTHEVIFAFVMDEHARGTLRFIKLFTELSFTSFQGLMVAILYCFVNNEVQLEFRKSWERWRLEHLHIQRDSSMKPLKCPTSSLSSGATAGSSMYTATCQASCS

Molecule	cAMP levels [1]	GLP-1 EC50 [2] [µM]	GLP-1 ECso [2] [nM]	Glu ICso [3] [nM]	Glucagon IC50 [3] [µM]	Glucagon IC50 (nM); PA = partial antagonist [3] [nM]
CCCCCCCCCCCCCCCCOC[C@@H](O)COP(=O)([O-])OCC[N+](C)(C)C [lyso-platelet activating factor]	increased cAMP levels	–	–	–	–	–
D9, K12E16(Lactam) glucagon(6-39) Cex peptide (Peptide 4 of Table 13)	–	0.018	119	828	0.828	–
E9, E16K20(lactam) glucagon(6-39) Cex peptide (Peptide 3 of Table 13)	–	0.036	36	42	0.042	–
E9, K12, E16 glucagon(6-39) Cex peptide (Peptide 1 of Table 13)	–	–	–	762	0.762	–
E9, K12E16(lactam) glucagon(6-39) Cex peptide (Peptide 2 of Table 13)	–	0.063	63	2010	2.01	–
[E9, E16K20(lactam), D28]G(2~29) (peptide)	–	–	–	–	–	49
platelet-activating factor	increased cAMP levels	–	–	–	–	–
